# From article doi:10.1101/2022.02.13.480285
# Target: SiaM (M-subunit of Photobacterium profundum SiaQM) (Photobacterium profundum)
# Test: AUC
substance,measurement,value
SiaQ (Q-subunit of Photobacterium profundum SiaQM) (natural protein),stoichiometry N (SiaQ per SiaM),1
